In the supplement of paper PMC10126150:
± gives the standard deviation of the averaged measurements.

Test system: ATP
Assay: switch fluorescence ratio, 500 uM ATP over buffer (Cy3 cluster intensity, sum of 5 cycles each) (fold (ratio)); higher = stronger signal-on switching upon ATP binding; sequences stand for … in TCGTCGGCAGCGTCAGATGTGTATAAGAGACAGTTTTTTTTTTTTTTTTTTTTTTTTT…TC
Settings: aptamer strand: ATP DNA aptamer (quencher-CACCTGGGGGAGTATTGCGGAGGAAGG + anchor), 100 nM annealed; ATP concentration: 500 uM
In short: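 Per cluster, summed Cy3 intensity from the target cycles was divided by that from the buffer cycles to give the fluorescence ratio, then averaged per switch-domain sequence. Clusters outside 100-1000 RFU were excluded. The Cy3-labelled switching-strand clusters, on a modified Illumina MiSeq flow-cell, were annealed to 100 nM quencher-labelled ATP aptamer and imaged in selection buffer, then after 15 min with 500 uM ATP at 22 °C, for five cycles with NaOH stripping and re-annealing between them.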
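Note: ATP exposure 15 min at 22 °C before imaging.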

CGTCATTTAT
switch fluorescence ratio: 1 ± 0.06

ATAAGACTGT
switch fluorescence ratio: 1.03 ± 0.018

AGTAAGTCGG
switch fluorescence ratio: 0.975 ± 0.022

GTTTTAACAT
switch fluorescence ratio: 0.9895 ± 0.0073

GGGCAAGCTG
switch fluorescence ratio: 1.04 ± 0.1

AAGTACGTTA
switch fluorescence ratio: 1.25 ± 0.029

GGGTAAATTA
switch fluorescence ratio: 0.989 ± 0.042

TGTTATTTGT
switch fluorescence ratio: 0.975 ± 0.048

GAGAGGGGCT
switch fluorescence ratio: 1.01 ± 0.02

AAAAATGCGG
switch fluorescence ratio: 1.01 ± 0.077

TTTTAGTGGT
switch fluorescence ratio: 0.992 ± 0.014

TTGGAGCACG
switch fluorescence ratio: 1.03 ± 0.049

CCAGGCTATG
switch fluorescence ratio: 1.012 ± 0.0047

CGAATTTTCG
switch fluorescence ratio: 0.976 ± 0.012

CTTCACCAAC
switch fluorescence ratio: 1.19 ± 0.013

TTCAGAAGTC
switch fluorescence ratio: 1.01 ± 0.056

TTTTGAATTT
switch fluorescence ratio: 0.996 ± 0.032

CCTCGGGAAA
switch fluorescence ratio: 1.06 ± 0.1

GATGGGGGAA
switch fluorescence ratio: 0.986 ± 0.049

CGTACGGGTT
switch fluorescence ratio: 0.9959 ± 0.0039

ACGGACTTTG
switch fluorescence ratio: 0.941 ± 0.063

AGACACGGGG
switch fluorescence ratio: 1.06 ± 0.02

GGATGACTTT
switch fluorescence ratio: 0.9981 ± 0.0071

AAACGGGCTA
switch fluorescence ratio: 1.03 ± 0.039

AAATGGCTGG
switch fluorescence ratio: 0.9982 ± 0.0091

CGAGGGGGG
switch fluorescence ratio: 0.997 ± 0.015

CGGTGTAGAG
switch fluorescence ratio: 0.996 ± 0.0093

AAGTTTTGGA
switch fluorescence ratio: 1.02 ± 0.025

AATACGTTAG
switch fluorescence ratio: 1.01 ± 0.027

CGGAACGCA
switch fluorescence ratio: 2.01 ± 0.046

GAGTTTGGTG
switch fluorescence ratio: 0.94 ± 0.033

TGCGGGAGTA
switch fluorescence ratio: 1.003 ± 0.0014

ATTGCAGGGA
switch fluorescence ratio: 0.993 ± 0.042

AAGTTAATCT
switch fluorescence ratio: 0.988 ± 0.019

AAGGATTATG
switch fluorescence ratio: 1 ± 0.07

TCGGGGAATT
switch fluorescence ratio: 0.989 ± 0.032

AAAAGGGGAT
switch fluorescence ratio: 0.997 ± 0.036

TTGCGTCATT
switch fluorescence ratio: 1.03 ± 0.016

GGCGGGTGGG
switch fluorescence ratio: 1.03 ± 0.089

AATTTGAAAG
switch fluorescence ratio: 1.017 ± 0.01

TTTTGTGGCG
switch fluorescence ratio: 1.04 ± 0.033

TGAAAATACC
switch fluorescence ratio: 1.011 ± 0.01

TAAGGGAGTT
switch fluorescence ratio: 0.9874 ± 0.0095

TCAGTGTCCG
switch fluorescence ratio: 0.966 ± 0.038

TAGTGCCGGG
switch fluorescence ratio: 1.06 ± 0.07

CGGTTAGGAT
switch fluorescence ratio: 0.994 ± 0.0078

TTGCTCAAGC
switch fluorescence ratio: 0.999 ± 0.068

TGGGTTCGGG
switch fluorescence ratio: 0.9503 ± 0.0091

TGTGTCATGT
switch fluorescence ratio: 0.989 ± 0.013

CATATTTT
switch fluorescence ratio: 0.971 ± 0.047

TTTCGTATGT
switch fluorescence ratio: 0.997 ± 0.05

TTTCGAGCGT
switch fluorescence ratio: 1.01 ± 0.029

TCAGTAACGC
switch fluorescence ratio: 1.05 ± 0.013

CATTTAGTGT
switch fluorescence ratio: 0.984 ± 0.012

ACGTGGGGGG
switch fluorescence ratio: 1.04 ± 0.082

TATTAATGCT
switch fluorescence ratio: 1.028 ± 0.0052

GATAGGGGCT
switch fluorescence ratio: 0.938 ± 0.042

CTGGTGGGAG
switch fluorescence ratio: 0.9857 ± 0.0067

TGGGGTTAGG
switch fluorescence ratio: 1 ± 0.024

TCGGGCGCAT
switch fluorescence ratio: 1.27 ± 0.026

AGGTTTTATT
switch fluorescence ratio: 0.948 ± 0.023

CTGTCGAGTA
switch fluorescence ratio: 1.13 ± 0.19

ATGTACATTT
switch fluorescence ratio: 1.068 ± 0.0059

CGTGGCAGGA
switch fluorescence ratio: 1.03 ± 0.021

CGTCCTGGCT
switch fluorescence ratio: 1.02 ± 0.07

AGTTAAAATA
switch fluorescence ratio: 1 ± 0.021

TGTGGGGGAT
switch fluorescence ratio: 1.01 ± 0.06

AATCTTTGTG
switch fluorescence ratio: 0.976 ± 0.033

GTTTGTTTAA
switch fluorescence ratio: 0.981 ± 0.017

TTTGGGTAAG
switch fluorescence ratio: 1 ± 0.024

CTCAGCCATT
switch fluorescence ratio: 1.36 ± 0.039

AGACAGGGAG
switch fluorescence ratio: 1.01 ± 0.031

CCAAGTGTGC
switch fluorescence ratio: 1.26 ± 0.17

GTGGTCGGGA
switch fluorescence ratio: 1.09 ± 0.15

TCATAGCGGT
switch fluorescence ratio: 1.095 ± 0.0014

ACGCGGTCGG
switch fluorescence ratio: 1.08 ± 0.044

GAATTTGAGC
switch fluorescence ratio: 1.03 ± 0.02

GGAGTTTGAG
switch fluorescence ratio: 1 ± 0.0095

ATGGTCCATG
switch fluorescence ratio: 0.995 ± 0.022

GCTTATTTAA
switch fluorescence ratio: 0.99 ± 0.021

GATAGATAGA
switch fluorescence ratio: 0.9957 ± 0.002

TTCATTGTTA
switch fluorescence ratio: 1.03 ± 0.049

AGATTCGGTC
switch fluorescence ratio: 1 ± 0.018

ACACTGCCGG
switch fluorescence ratio: 1.04 ± 0.026

GGGGGACGGT
switch fluorescence ratio: 1.02 ± 0.017

CGCTGCTCGA
switch fluorescence ratio: 1.06 ± 0.013

GCTGTAGGGG
switch fluorescence ratio: 1.02 ± 0.081

GGTTTTGTAA
switch fluorescence ratio: 0.982 ± 0.018

ATGCTTCTGT
switch fluorescence ratio: 0.964 ± 0.013

AGGTGTTTAA
switch fluorescence ratio: 1.03 ± 0.061

TGGACCTTTT
switch fluorescence ratio: 1.64 ± 0.82

TTGTTTGTGA
switch fluorescence ratio: 0.992 ± 0.011

CCAGGGGGCA
switch fluorescence ratio: 1.13 ± 0.14

AAATGGGGGA
switch fluorescence ratio: 0.991 ± 0.04

TTGCCTGTAT
switch fluorescence ratio: 0.9731 ± 0.0073

AAAAAACGCT
switch fluorescence ratio: 1.08 ± 0.061

GCATTCGGTT
switch fluorescence ratio: 0.972 ± 0.039

ACATTCCAAA
switch fluorescence ratio: 1.03 ± 0.013

TAAAAACCTT
switch fluorescence ratio: 1.43 ± 0.35

CGCTGAGAGG
switch fluorescence ratio: 1 ± 0.027
